Results as given in patent US20170275344A1, “POLYPEPTIDES AND USES THEREOF AS A DRUG FOR TREATMENT OF AUTOIMMUNE DISORDERS” (Compugen Ltd., priority 2014, published 2017).

Key:
SJL/J mice [1] = assay: Adoptive transfer R-EAE, clinical score; assay type: in vivo, mouse
Procedure: Female SJL/J mice were primed with 50 ug of PLP139-151/CFA according to the standard laboratory protocol on day 0. On day 8 post disease induction, the inguinal lymph nodes were collected and the total lymph node cells were re-activated in culture in the presence of PLP139-151 for 3 days. At the end of culture, cells were collected and transferred into naive recipient SJL/J mice.
a. Mice were shaved (about a lin.xlin, square on the back between the hind flanks) and injected with CFA/PLP139-151 emulsion at 100 μl per mouse s.c., divided between three spots on the back and flanks. Peptide and final dose given per mouse: 50 μg of PLP139-151 peptide on day 0.
b. On day 8 post priming with PLP139-151/CFA, the draining inguinal lymph nodes were collected, and single cell suspensions were prepared. Total lymph node cells were cultured at a density of 8×10^6 cells per ml in the HL-1 medium plus PLP139-151 peptide (20 μg/ml) in T75 flasks.
c. After 3 days of culture, the PLP139-151 reactivated cells were collected and counted using an hemacytometer. The number of total viable cells and the number of blast cells was determined. The percentage of blast cells expected following this protocol is 20-30% of the total viable cells.
d. Unless otherwise specified, 3×10^6 cells were transferred to each recipient mouse by intravenous injection.
f. Mice were scored on the indicated days, on a 0-5 disease score scale per standard laboratory protocol: 0, no abnormality; 1, limp tail; 2, limp tail and hind limb weakness; 3, hind limb paralysis; 4, hind limb paralysis and forelimb weakness; and 5, moribund.

SJL/J mice [2] = assay: Trafficking of transferred PLP139-151 sensitized cells into the CNS (flow cytometry); assay type: in vivo, mouse
Procedure: PLP139-151 sensitized cells were generated as described in Materials and Methods (cell counts in the reactivation culture are presented in Table 2) and labeled with PBSE (4 uM) before transfer to naïve mice. In study “Cgen data” (FIG. 12), disease was induced in recipient mice (n=10 per group) by i.v. transfer of 5×10^6 blast cells to each recipient mouse. A relatively large number of transferred cells were used in order to allow detection of the transferred cells by flow cytometry analysis at the end of the study. Mice were split into Control Ig and C1ORF32 ECD-Fc (SEQ ID NO:42) treatment groups, receiving 100 ug/dose intraperitoneal injection three times per week for 2 weeks. On Day +14 after cell transfer, 5 representative mice from each group were selected for analysis of trafficking of transferred cells into the CNS. Spleens, cervical lymph nodes, and CNS were collected, and the number of PBSE- or PBSE+/CD45+/CD3+/CD4+ T cells was analyzed by flow cytometric analysis.
An additional experiment (designated “MYC48 FACS”, FIG. 13) was performed using an alternative staining follow-up approach. SJL-Actin/GFP mice were primed with PLP139-151/CFA, and sensitized blast cells were generated as described in Materials and Methods (cell counts in the reactivation culture are presented in Table 2). On Day +3 of culture, PLP139-151 sensitized cells were collected and labeled with PBSE (4 uM). Disease was induced in the recipient mice (n=10 per group), by i.v. transfer of 5×10^6 blast cells/mouse. Beginning at the time of cell transfer, mice were treated with Control Ig or C1ORF32 ECD-Fc (SEQ ID NO:42) (100 ug/dose i.p. three times per week for 2 weeks). […] To evaluate C1ORF32 ECD-Fc (SEQ ID NO:42) effect on immune cell trafficking to the CNS, spleens, cervical lymph nodes, and CNS cells collected form 5 mice on day +10 post cell transfer, and the number of transferred CD45hi PBSE+ or GFP+ cells was analyzed by flow cytometry. […]

B1: C1ORF32 ECD-Fc (SEQ ID NO:42): fusion protein of human C1ORF32 ECD fused to mouse immunoglobulin Fc (human-mouse fusion protein) (protein)
chain: LQVTVPDKKKVAMLFQPTVLRCHFSTSSHQPAVVQWKFKSYCQDRMGESLGMSSTRAQSLSKRNLEWDPYLDCLDSRRTVRVVASKQGSTVTLGDFYRGREITIVHDADLQIGKLMWGDSGLYYCIITTPDDLEGKNEDSVELLVLGRTGLLADLLPSFAVEIMGSENLYFQGSGEPRGPTIKPCPPCKCPAPNLLGGPSVFIFPPKIKDVLMISLSPIVTCVVVDVSEDDPDVQISWFVNNVEVHTAQTQTHREDYNSTLRVVSALPIQHQDWMSGKEFKCKVNNKDLPAPIERTISKPKGSVRAPQVYVLPPPEEEMTKKQVTLTCMVTDFMPEDIYVEWTNNGKTELNYKNTEPVLDSDGSYFMYSKLRVEKKNWVERNSYSCSVVHEGLHNHHTTKSFSRTPGK
modifications: Fusion protein human C1ORF32-ECD fused to mouse IgG2a Fc
- clinical signs of the disease (mean clinical score) (SJL/J mice [1]; 100 ug/mouse i.p. 3x/wk for 2 wks from onset of disease remission, two studies): robust inhibition of clinical signs of the disease
- disease induction (SJL/J mice [1]; study Cgen data, treatment from the time of cell transfer, 100 ug/dose i.p. 3x/wk for 2 wks): complete abolishment of disease induction
- disease development (SJL/J mice [1]; study MYC48 FACS, treatment from the time of cell transfer, 100 ug/dose i.p. 3x/wk for 2 wks): abolished disease development
- number of transferred CD4+ T cells within the CNS (SJL/J mice [2]; study Cgen data, treatment from time of cell transfer): decrease
- number of total or activated transferred T cells in the spleen and cervical lymph nodes (SJL/J mice [2]; study MYC48 FACS, day +10): No change
- number of GFP+ and PBSE+ transferred cells in the CNS (SJL/J mice [2]; study MYC48 FACS, day +10 post cell transfer): decrease
